{
  "source": "the supplement of paper PMC11316812",
  "key": {"MCF7": {"system": "MCF7", "experiment": "percentage of EdU-negative (G0-arrested) nuclei per well, 72 h; higher = more G0 arrest", "details": "reference: sequence is the full UniProt precursor, the tested protein was the secreted form or ectodomain"}, "hTERT-HMEC": {"system": "hTERT-HMEC", "experiment": "percentage of EdU-negative (G0-arrested) nuclei per well, 72 h; higher = more G0 arrest", "details": "reference: sequence is the full UniProt precursor, the tested protein was the secreted form or ectodomain"}, "[1]": {"details": "protein concentration 0.0225 µM"}, "[2]": {"details": "protein concentration 0.01175 µM"}, "[3]": {"details": "protein concentration 0.1175 µM"}},
  "note": "± gives the standard deviation of the averaged measurements.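 Also: secreted proteins added to cultured cells, EdU pulse at the end, nuclei found by Hoechst imaging, EdU status from nuclear versus surrounding ring intensity ratio, PBS as neutral control.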",
  "data": [
    {"sequence": "MEGAGPRGAGPARRRGAGGPPSPLLPSLLLLLLLWMLPDTVAPQELNPRGRNVCRAPGSQVPTCCAGWRQQGDECGIAVCEGNSTCSENEVCVRPGECRCRHGYFGANCDTKCPRQFWGPDCKELCSCHPHGQCEDVTGQCTCHARRWGARCEHACQCQHGTCHPRSGACRCEPGWWGAQCASACYCSATSRCDPQTGACLCHAGWWGRSCNNQCACNSSPCEQQSGRCQCRERTFGARCDRYCQCFRGRCHPVDGTCACEPGYRGKYCREPCPAGFYGLGCRRRCGQCKGQQPCTVAEGRCLTCEPGWNGTKCDQPCATGFYGEGCSHRCPPCRDGHACNHVTGKCTRCNAGWIGDRCETKCSNGTYGEDCAFVCADCGSGHCDFQSGRCLCSPGVHGPHCNVTCPPGLHGADCAQACSCHEDTCDPVTGACHLETNQRKGVMGAGALLVLLVCLLLSLLGCCCACRGKDPTRRPRPRRELSLGRKKAPHRLCGRFSRISMKLPRIPLRRQKLPKVVVAHHDLDNTLNCSFLEPPSGLEQPSPSWSSRASFSSFDTTDEGPVYCVPHEEAPAESRDPEVPTVPAEAPAPSPVPLTTPASAEEAIPLPASSDSERSASSVEGPGGALYARVARREARPARARGEIGGLSLSPSPERRKPPPPDPATKPKVSWIHGKHSAAAAGRAPSPPPPGSEAAPSPSKRKRTPSDKSAHTVEHGSPRTRDPTPRPPGLPEEATALAAPSPPRARARGRGPGLLEPTDAGGPPRSAPEAASMLAAELRGKTRSLGRAEVALGAQGPREKPAPPQKAKRSVPPASPARAPPATETPGPEKAATDLPAPETPRKKTPIQKPPRKKSREAAGELGRAGAPTL [Q96GP6]", "values": [
      {"measurement": "percentage of EdU-negative", "setting": "MCF7; [1]", "result": "25.7 ± 1.2", "unit": "%"},
      {"measurement": "percentage of EdU-negative", "setting": "MCF7; protein concentration 0.225 µM", "result": "36.9 ± 0.76", "unit": "%"},
      {"measurement": "percentage of EdU-negative", "setting": "hTERT-HMEC; [1]", "result": "3.85 ± 0.62", "unit": "%"},
      {"measurement": "percentage of EdU-negative", "setting": "hTERT-HMEC; protein concentration 0.225 µM", "result": "18.5 ± 6.1", "unit": "%"}
    ]},
    {"sequence": "MEGGDQSEEEPRERSQAGGMGTLWSQESTPEERLPVEGSRPWAVARRVLTAILILGLLLCFSVLLFYNFQNCGPRPCETSVCLDLRDHYLASGNTSVAPCTDFFSFACGRAKETNNSFQELATKNKNRLRRILEVQNSWHPGSGEEKAFQFYNSCMDTLAIEAAGTGPLRQVIEELGGWRISGKWTSLNFNRTLRLLMSQYGHFPFFRAYLGPHPASPHTPVIQIDQPEFDVPLKQDQEQKIYAQIFREYLTYLNQLGTLLGGDPSKVQEHSSLSISITSRLFQFLRPLEQRRAQGKLFQMVTIDQLKEMAPAIDWLSCLQATFTPMSLSPSQSLVVHDVEYLKNMSQLVEEMLLKQRDFLQSHMILGLVVTLSPALDSQFQEARRKLSQKLRELTEQPPMPARPRWMKCVEETGTFFEPTLAALFVREAFGPSTRSAAMKLFTAIRDALITRLRNLPWMNEETQNMAQDKVAQLQVEMGASEWALKPELARQEYNDIQLGSSFLQSVLSCVRSLRARIVQSFLQPHPQHRWKVSPWDVNAYYSVSDHVVVFPAGLLQPPFFHPGYPRAVNFGAAGSIMAHELLHIFYQLLLPGGCLACDNHALQEAHLCLKRHYAAFPLPSRTSFNDSLTFLENAADVGGLAIALQAYSKRLLRHHGETVLPSLDLSPQQIFFRSYAQVMCRKPSPQDSHDTHSPPHLRVHGPLSSTPAFARYFRCARGALLNPSSRCQLW", "values": [
      {"measurement": "percentage of EdU-negative", "setting": "MCF7; [1]", "result": "26.89 ± 0.16", "unit": "%"},
      {"measurement": "percentage of EdU-negative", "setting": "MCF7; protein concentration 0.225 µM", "result": "27.1 ± 3.5", "unit": "%"},
      {"measurement": "percentage of EdU-negative", "setting": "hTERT-HMEC; [1]", "result": "4.88 ± 0.16", "unit": "%"},
      {"measurement": "percentage of EdU-negative", "setting": "hTERT-HMEC; protein concentration 0.225 µM", "result": "6.43 ± 0.18", "unit": "%"}
    ]},
    {"sequence": "MEIPVPVQPSWLRRASAPLPGLSAPGRLFDQRFGEGLLEAELAALCPTTLAPYYLRAPSVALPVAQVPTDPGHFSVLLDVKHFSPEEIAVKVVGEHVEVHARHEERPDEHGFVAREFHRRYRLPPGVDPAAVTSALSPEGVLSIQAAPASAQAPPPAAAK", "values": [
      {"measurement": "percentage of EdU-negative", "setting": "MCF7; [1]", "result": "27 ± 0.81", "unit": "%"},
      {"measurement": "percentage of EdU-negative", "setting": "MCF7; protein concentration 0.225 µM", "result": "25.6 ± 1.1", "unit": "%"},
      {"measurement": "percentage of EdU-negative", "setting": "hTERT-HMEC; [1]", "result": "4.93 ± 0.29", "unit": "%"},
      {"measurement": "percentage of EdU-negative", "setting": "hTERT-HMEC; protein concentration 0.225 µM", "result": "5.53 ± 0.95", "unit": "%"}
    ]},
    {"sequence": "MEIVWEVLFLLQANFIVCISAQQNSPKIHEGWWAYKEVVQGSFVPVPSFWGLVNSAWNLCSVGKRQSPVNIETSHMIFDPFLTPLRINTGGRKVSGTMYNTGRHVSLRLDKEHLVNISGGPMTYSHRLEEIRLHFGSEDSQGSEHLLNGQAFSGEVQLIHYNHELYTNVTEAAKSPNGLVVVSIFIKVSDSSNPFLNRMLNRDTITRITYKNDAYLLQGLNIEELYPETSSFITYDGSMTIPPCYETASWIIMNKPVYITRMQMHSLRLLSQNQPSQIFLSMSDNFRPVQPLNNRCIRTNINFSLQGKDCPNNRAQKLQYRVNEWLLK [Q9NS85]", "values": [
      {"measurement": "percentage of EdU-negative", "setting": "MCF7; [1]", "result": "25.5 ± 2.5", "unit": "%"},
      {"measurement": "percentage of EdU-negative", "setting": "MCF7; protein concentration 0.225 µM", "result": "27.9 ± 0.69", "unit": "%"},
      {"measurement": "percentage of EdU-negative", "setting": "hTERT-HMEC; [1]", "result": "5.049 ± 0.027", "unit": "%"},
      {"measurement": "percentage of EdU-negative", "setting": "hTERT-HMEC; protein concentration 0.225 µM", "result": "8.51 ± 1.1", "unit": "%"}
    ]},
    {"sequence": "MEKILFYLFLIGIAVKAQICPKRCVCQILSPNLATLCAKKGLLFVPPNIDRRTVELRLADNFVTNIKRKDFANMTSLVDLTLSRNTISFITPHAFADLRNLRALHLNSNRLTKITNDMFSGLSNLHHLILNNNQLTLISSTAFDDVFALEELDLSYNNLETIPWDAVEKMVSLHTLSLDHNMIDNIPKGTFSHLHKMTRLDVTSNKLQKLPPDPLFQRAQVLATSGIISPSTFALSFGGNPLHCNCELLWLRRLSREDDLETCASPPLLTGRYFWSIPEEEFLCEPPLITRHTHEMRVLEGQRATLRCKARGDPEPAIHWISPEGKLISNATRSLVYDNGTLDILITTVKDTGAFTCIASNPAGEATQIVDLHIIKLPHLLNSTNHIHEPDPGSSDISTSTKSGSNTSSSNGDTKLSQDKIVVAEATSSTALLKFNFQRNIPGIRMFQIQYNGTYDDTLVYRMIPPTSKTFLVNNLAAGTMYDLCVLAIYDDGITSLTATRVVGCIQFTTEQDYVRCHFMQSQFLGGTMIIIIGGIIVASVLVFIIILMIRYKVCNNNGQHKVTKVSNVYSQTNGAQIQGCSVTLPQSVSKQAVGHEENAQCCKATSDNVIQSSETCSSQDSSTTTSALPPSWTSSTSVSQKQKRKTGTKPSTEPQNEAVTNVESQNTNRNNSTALQLASRPPDSVTEGPTSKRAHIKPNALLTNVDQIVQETQRLELI [G3V364]", "values": [
      {"measurement": "percentage of EdU-negative", "setting": "MCF7; [2]", "result": "25.9 ± 2.7", "unit": "%"},
      {"measurement": "percentage of EdU-negative", "setting": "MCF7; [3]", "result": "27.1 ± 1.2", "unit": "%"},
      {"measurement": "percentage of EdU-negative", "setting": "hTERT-HMEC; [2]", "result": "4.44 ± 0.44", "unit": "%"},
      {"measurement": "percentage of EdU-negative", "setting": "hTERT-HMEC; [3]", "result": "6.29 ± 1.1", "unit": "%"}
    ]},
    {"sequence": "MEKILILLLVALSVAYAAPGPRGIIINLENGELCMNSAQCKSNCCQHSSALGLARCTSMASENSECSVKTLYGIYYKCPCERGLTCEGDKTIVGSITNTNFGICHDAGRSKQ", "values": [
      {"measurement": "percentage of EdU-negative", "setting": "MCF7; [1]", "result": "23.9 ± 2.4", "unit": "%"},
      {"measurement": "percentage of EdU-negative", "setting": "MCF7; protein concentration 0.225 µM", "result": "28.37 ± 0.035", "unit": "%"},
      {"measurement": "percentage of EdU-negative", "setting": "hTERT-HMEC; [1]", "result": "5.19 ± 0.81", "unit": "%"},
      {"measurement": "percentage of EdU-negative", "setting": "hTERT-HMEC; protein concentration 0.225 µM", "result": "6.85 ± 1.2", "unit": "%"}
    ]},
    {"sequence": "MEKIPVSAFLLLVALSYTLARDTTVKPGAKKDTKDSRPKLPQTLSRGWGDQLIWTQTYEEALYKSKTSNKPLMIIHHLDECPHSQALKKVFAENKEIQKLAEQFVLLNLVYETTDKHLSPDGQYVPRIMFVDPSLTVRADITGRYSNRLYAYEPADTALLLDNMKKALKLLKTEL", "values": [
      {"measurement": "percentage of EdU-negative", "setting": "MCF7; [1]", "result": "25.2 ± 1.5", "unit": "%"},
      {"measurement": "percentage of EdU-negative", "setting": "MCF7; protein concentration 0.225 µM", "result": "25.7 ± 0.74", "unit": "%"},
      {"measurement": "percentage of EdU-negative", "setting": "hTERT-HMEC; [1]", "result": "4.87 ± 0.93", "unit": "%"},
      {"measurement": "percentage of EdU-negative", "setting": "hTERT-HMEC; protein concentration 0.225 µM", "result": "7.88 ± 0.32", "unit": "%"}
    ]}
  ]
}
